This is an account of results in publication PMC11602552 (The Journal of Experimental Medicine, 2024).

The target in this assay is wild type eIF6 (eIF6^WT), purified (UniProt O55135 1-245). The experiment in a line: SPR.

B1: Nsun2, purified (enzyme)
chain: MGRRARGRRFQQPPQPEGEEDASDGGRKRGQAGWEGGYPEIVKENKLFEHYYQELKIVPEGEWDQFMESLREPLPATLRITGYKSHAKEILHCLKNKYFKELEDLEVDGQKVEVPQPLSWYPEELAWHTNLSRKILRKSPLLAKFHQFLVSETESGNISRQEAVSMIPPLLLNVEPHHKILDMCAAPGSKTTQLIEMLHADMSVPFPEGFVIANDVDNKRCYLLVHQAKRLSSPCIMVVNHDASSIPRLTVDVDGRKEILFYDRILCDVPCSGDGTMRKNIDVWKKWTTLNSLQLHGLQLRIATRGAEQLAEGGRMVYSTCSLNPVEDEAVIAALLEKSEGALELADVSAELPGLKWMPGVSQWKVMTRDGQWFADWHEVPQGRHTQIRPTMFPPTDLEKLQAMHLERCLRILPHHQNTGGFFVAVLVKKAPMPWNKRQPKVQNKSAEAREPRVSSHVAATEGNPSDQSELESQMITGAGDSETAHNTENTESNEKKDGVCGPPPSKKMKLFGFKEDPFVFIPEDDPLFPPIEKFYALDPSFPRMNLLTRTTEGKKRQLYMVSKELRNVLLNNSEKMKVINTGIKVWCRNNSGEEFDCAFRLAQEGIYTLYPFINSRIITVSMEDVKTLLTQENPFFRKLSSEAYSQVKDLAKGSVVLKYEPDSANPDTLQCPIVLCGWRGKASIRTFVPKNERLHYLRMMGLEVLGEKKKEGVILTNENAASPEQPGDEDAKQTAQDPCVPDSVPGCDAAAAEPSR
Consider B1, for which the Kd is 1.47 µM.
